From patent publication US20120316071A1

Key:
[1] = biological target: rHuman Notch-1/Fc Chimera, CF (R&D Systems Cat#3647-TK) (human) (UniProt P46531); test: ECL (MSD) multispot binding assay, antigen spotted on plate, 20 nM Fab
[2] = biological target: Recombinant Human DLL4 (R&D Systems Cat#1506-D4/CF) (human) (UniProt Q9NR61); test: ECL (MSD) multispot binding assay, antigen spotted on plate, Fab in solution
[3] = biological target: rHuman IGF-1 sR, (IGF-1 sR), CF (R&D Systems Cat#391-GR) (human) (UniProt P08069); test: Multispot ECL (MSD), antigen spotted on plate, Fab 210 nM; blank spot 833
[4] = biological target: rHuman IGF-1 sR, (IGF-1 sR), CF (R&D Systems Cat#391-GR) (human) (UniProt P08069); test: Multispot ECL (MSD), antigen spotted on plate, Fab 52.5 nM; blank spot 467
[5] = biological target: rHuman IGF-1 sR, (IGF-1 sR), CF (R&D Systems Cat#391-GR) (human) (UniProt P08069); test: Multispot ECL (MSD), antigen spotted on plate, Fab […]; blank spot 376
[6] = biological target: rHuman IGF-1 sR, (IGF-1 sR), CF (R&D Systems Cat#391-GR) (human) (UniProt P08069); test: Multispot ECL (MSD), antigen spotted on plate, Fab […]; blank spot 359
[7] = biological target: rHuman Erythropoietin R/Fc Chimera, CF (R&D Systems Cat#963-ER) (human) (UniProt P19235); test: Multispot ECL (MSD) assay, antigen spotted on plate, Fab at 421.12 nM; blank spot 639
[8] = biological target: rHuman Erythropoietin R/Fc Chimera, CF (R&D Systems Cat#963-ER) (human) (UniProt P19235); test: Multispot ECL (MSD) assay, antigen spotted on plate, Fab at 42.112 nM; blank spot 323
[9] = biological target: rHuman CD44/Fc Chimera, CF (R&D Systems Cat#3660-CD) (human) (UniProt P16070); test: ECL multispot (MSD) assay, antigen spotted on plate, 20 nM Fab
[10] = biological target: rHuman Notch-1/Fc Chimera, CF (R&D Systems Cat#3647-TK) (human) (UniProt P46531); test: as above
[11] = biological target: rHuman EGF R/Fc Chimera, CF (R&D Systems Cat#344-ER) (human) (UniProt P00533); test: as above
[12] = biological target: rHuman IGF-1 sR, CF (R&D Systems Cat#391-GR) (human) (UniProt P08069); test: as above
[13] = biological target: rHuman ErbB2/Fc Chimera, CF (R&D Systems Cat#1129-ER) (human) (UniProt P04626); test: Multispot ECL (MSD), antigen spotted on plate, Fab 1.2 nM; blank spot 227
[14] = biological target: rHuman Notch-1/Fc Chimera, CF (R&D Systems Cat#3647-TK) (human) (UniProt P46531); test: as above
[15] = biological target: rHuman HGF R/c-MET/Fc Chimera, CF (R&D Systems Cat#358-MT/CF) (human) (UniProt P08581); test: as above
[16] = biological target: Recombinant Human DLL4 (R&D Systems Cat#1506-D4/CF) (human) (UniProt Q9NR61); test: as above
[17] = biological target: rHuman ErbB2/Fc Chimera, CF (R&D Systems Cat#1129-ER) (human) (UniProt P04626); test: Multispot ECL (MSD), antigen spotted on plate, Fab 0.12 nM; blank spot 264
[18] = biological target: rHuman Notch-1/Fc Chimera, CF (R&D Systems Cat#3647-TK) (human) (UniProt P46531); test: as above
[19] = biological target: rHuman HGF R/c-MET/Fc Chimera, CF (R&D Systems Cat#358-MT/CF) (human) (UniProt P08581); test: as above
[20] = biological target: Recombinant Human DLL4 (R&D Systems Cat#1506-D4/CF) (human) (UniProt Q9NR61); test: as above
[21] = biological target: rHuman ErbB2/Fc Chimera, CF (R&D Systems Cat#1129-ER) (human) (UniProt P04626); test: Multispot ECL (MSD), antigen spotted on plate, Fab 12 nM; blank spot 573
[22] = biological target: rHuman Notch-1/Fc Chimera, CF (R&D Systems Cat#3647-TK) (human) (UniProt P46531); test: as above
[23] = biological target: rHuman HGF R/c-MET/Fc Chimera, CF (R&D Systems Cat#358-MT/CF) (human) (UniProt P08581); test: as above
[24] = biological target: Recombinant Human DLL4 (R&D Systems Cat#1506-D4/CF) (human) (UniProt Q9NR61); test: as above
[25] = biological target: rHuman ErbB2/Fc Chimera, CF (R&D Systems Cat#1129-ER) (human) (UniProt P04626); test: Multispot ECL (MSD), antigen spotted on plate, Fab 120 nM; blank spot 6749
[26] = biological target: rHuman Notch-1/Fc Chimera, CF (R&D Systems Cat#3647-TK) (human) (UniProt P46531); test: as above
[27] = biological target: rHuman HGF R/c-MET/Fc Chimera, CF (R&D Systems Cat#358-MT/CF) (human) (UniProt P08581); test: as above
[28] = biological target: Recombinant Human DLL4 (R&D Systems Cat#1506-D4/CF) (human) (UniProt Q9NR61); test: as above
[29] = biological target: rHuman Erythropoietin R/Fc Chimera, CF (R&D Systems Cat#963-ER) (human) (UniProt P19235); test: ECL multispot (MSD) assay, antigen spotted on plate, 10 nM Fab
[30] = biological target: rHuman Erythropoietin R/Fc Chimera, CF (R&D Systems Cat#963-ER) (human) (UniProt P19235); test: ECL multispot (MSD), antigen spotted, Fab in solution
[31] = biological target: rHuman CD44/Fc Chimera, CF (R&D Systems Cat#3660-CD) (human) (UniProt P16070); test: as above
[32] = biological target: rHuman Notch-1/Fc Chimera, CF (R&D Systems Cat#3647-TK) (human) (UniProt P46531); test: as above
[33] = biological target: rHuman P-Cadherin/Fc Chimera, CF (R&D Systems Cat#861-PC) (human) (UniProt P22223); test: as above
[34] = biological target: rHuman HGF R/c-MET/Fc Chimera, CF (R&D Systems Cat#358-MT/CF) (human) (UniProt P08581); test: as above
[35] = biological target: rHuman EGF R/Fc Chimera, CF (R&D Systems Cat#344-ER) (human) (UniProt P00533); test: as above
[36] = biological target: Recombinant Human DLL4 (R&D Systems Cat#1506-D4/CF) (human) (UniProt Q9NR61); test: as above
[37] = biological target: rHuman IGF-1 sR, CF (R&D Systems Cat#391-GR) (human) (UniProt P08069); test: as above
[38] = biological target: rHuman Erythropoietin R/Fc Chimera, CF (R&D Systems Cat#963-ER) (human) (UniProt P19235); test: ECL multispot (MSD) binding assay; antigen spotted on plate, Fab in solution, Ru-labelled anti-kappa detection
[39] = biological target: rHuman CD44/Fc Chimera, CF (R&D Systems Cat#3660-CD) (human) (UniProt P16070); test: as above
[40] = biological target: rHuman ErbB2/Fc Chimera, CF (R&D Systems Cat#1129-ER) (human) (UniProt P04626); test: as above
[41] = biological target: rHuman Notch-1/Fc Chimera, CF (R&D Systems Cat#3647-TK) (human) (UniProt P46531); test: as above
[42] = biological target: rHuman Notch-1/Fc Chimera, CF (R&D Systems Cat#3647-TK) (human) (UniProt P46531); test: ECL Multispot (MSD) assay, antigen spotted on plate, 10 nM Fab

Fab VH3-23_IGHD2-21*01>3_IGHJ6*01 H100E/S108P/Y113G Y114E & V2-13_IGLJ2*01
ECL multispot value [1]: 3.3

Fab VH3-23_IGHD3-10*01>3_IGHJ6*01 R104A & O12_IGKJ1*01
ECL multispot value (looks like signal/blank ratio; not labelled) [2]: 2.7

Fab VH4-31_IGHD2-15*01_IGHJ2*01 & V1-4_IGLJ4*01
ECL signal at 210 nM Fab [3]: 1430
ECL signal at 52.5 nM Fab [4]: 911
ECL signal at 13.1 nM Fab [5]: 814
ECL signal at 3.3 nM Fab [6]: 743

Fab VH3-23_IGHD3-10*01>3_IGHJ6*01 Y115G & O12_IGKJ1*01
ECL multispot value (looks like signal/blank ratio; not labelled) [2]: 2.7

Fab VH3-23_IGHD3-10*01>1′_IGHJ3*01 & O12_IGKJ1*01
ECL signal [7]: 1300
ECL signal [8]: 759

Fab VH3-23_IGHD2-21*01>3_IGHJ6*01 H100E/S108P K65A & V2-13_IGLJ2*01
ECL signal/blank ratio (read-out not given) [9]: 1.7
ECL signal/blank ratio (read-out not given) [10]: 3
ECL signal/blank ratio (read-out not given) [11]: 7.1
ECL signal/blank ratio (read-out not given) [12]: 1.4

Fab VH3-23_IGHD3-10*01>3_IGHJ6*01 & O12_IGKJ1*01
ECL signal [13]: 677
ECL signal [14]: 660
ECL signal [15]: 412
ECL signal [16]: 319
ECL signal [17]: 287
ECL signal [18]: 218
ECL signal [19]: 287
ECL signal [20]: 210
ECL signal [21]: 4360
ECL signal [22]: 2580
ECL signal [23]: 2700
ECL signal [24]: 2510
ECL signal [25]: 17300
ECL signal [26]: 14400
ECL signal [27]: 15900
ECL signal [28]: 20600

Fab VH1-46_IGHD6-6*01_IGHJ1*01 S102A/S103P/S104F/H111F & L6_IGKJ1*01
ECL signal [29]: 438

Fab VH3-23_IGHD3-10*01>3_IGHJ6*01 Y112Q & O12_IGKJ1*01
ECL signal/blank ratio [30]: 2.4
ECL signal/blank ratio [31]: 1.4
ECL signal/blank ratio [32]: 1.7
ECL signal/blank ratio [33]: 3
ECL signal/blank ratio [34]: 1.4
ECL signal/blank ratio [35]: 1.2
ECL signal/blank ratio [36]: 1.8
ECL signal/blank ratio [37]: 1.6

Fab VH1-46_IGHD6-6*01_IGHJ1*01 S102A/S103P/S104F/H111F F29A & L6_IGKJ1*01
ECL signal [38]: 1060
ECL signal [39]: 978
ECL signal [40]: 1290
ECL signal [41]: 6090
ECL signal [42]: 374

Fab VH3-23_IGHD2-21*01>3_IGHJ6*01 H100E/S108P/Y113G Y114H & V2-13_IGLJ2*01
ECL multispot value [1]: 3.3
